These results are taken from patent US20020009752A1 (DUKE UNIVERSITY, published 2002).

The target of test [1] is T1, polyglutamine-glutathione-S-transferase fusion protein with 62 glutamines (UniProt Q156A1 2-63).
T1 construct: Vector construction is cited to Onodera et al. 1996; also called Q62-GST; Q62; not shown: glutathione-S-transferase (GST)
Kind of test: phage ELISA on immobilized Q62-GST and Q19-GST, anti-M13 antibody detection; reference Q19-GST. (ELISA stands for enzyme-linked immunosorbent assay.)

A further test deals with T2, bovine serum albumin (bovine, UniProt P02769 25-607).
T2 construct: also called BSA
Kind of test: phage ELISA.

Test [2] deals with thioredoxin-polyglutamine fusion protein with 62 glutamines (Homo sapiens (Human), UniProt Q156A1 2-63). As to the kind of experiment: cell-based or functional assay.
The target in test [3] is thioredoxin-polyglutamine fusion protein with 81 glutamines (Dictyostelium discoideum (Social amoeba), UniProt Q54DK4 734-1290). Kind of test: cell-based or functional assay.

No end group written: not given here.

T1 sequence (Q156A1 2-63): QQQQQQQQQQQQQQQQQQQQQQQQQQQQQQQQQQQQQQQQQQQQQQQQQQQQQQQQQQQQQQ
T2 sequence (P02769 25-607 limits assumed): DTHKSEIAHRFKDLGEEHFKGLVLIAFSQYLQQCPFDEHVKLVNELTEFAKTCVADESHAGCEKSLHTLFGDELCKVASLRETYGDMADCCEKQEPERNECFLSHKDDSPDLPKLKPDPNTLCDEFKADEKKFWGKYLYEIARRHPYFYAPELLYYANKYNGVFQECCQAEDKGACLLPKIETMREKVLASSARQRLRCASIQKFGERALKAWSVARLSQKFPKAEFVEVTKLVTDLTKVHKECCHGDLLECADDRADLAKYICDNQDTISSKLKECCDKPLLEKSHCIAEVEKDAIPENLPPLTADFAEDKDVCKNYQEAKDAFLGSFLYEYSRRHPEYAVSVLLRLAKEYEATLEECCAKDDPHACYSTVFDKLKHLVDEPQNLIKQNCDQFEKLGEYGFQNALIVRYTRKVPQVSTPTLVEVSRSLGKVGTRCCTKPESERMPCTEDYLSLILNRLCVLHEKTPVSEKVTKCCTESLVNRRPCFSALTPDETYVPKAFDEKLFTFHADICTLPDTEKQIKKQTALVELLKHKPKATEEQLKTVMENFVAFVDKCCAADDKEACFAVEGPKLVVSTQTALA
thioredoxin-polyglutamine fusion protein with 62 glutamines, sequence (Q156A1 2-63): as the sequence (Q156A1 2-63) above
thioredoxin-polyglutamine fusion protein with 81 glutamines, sequence (Q54DK4 other isoform, or with tags, fused parts or gaps): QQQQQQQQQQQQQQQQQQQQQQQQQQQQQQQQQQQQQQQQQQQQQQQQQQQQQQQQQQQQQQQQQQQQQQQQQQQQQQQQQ

B1: QBP5 phage clone (Glutamine Binding Peptide 5 displayed on M13 phage) (peptide)
chain: WWRWNWATPVD-pIII
notes: Assayed as purified M13 phage displaying the 11-mer at the amino terminus of pIII; not shown: pIII (Piii) capsid protein of phage M13; the 11-mer is added to its amino terminus; assayed as whole phage
B1: in test [1], the “RATIO Q62/Q19 BINDING ELISA” value was 1.25 ratio (phage bound to Q62-GST divided by phage bound to Q19-GST). For the same molecule, the binding result with bovine serum albumin is reported as “no binding”.

B2: QBP2 phage clone (Glutamine Binding Peptide 2 displayed on M13 phage) (peptide)
chain: HWWRSWYSDSV-pIII
notes: as for B1
B2: in test [1], the “RATIO Q62/Q19 BINDING ELISA” value is 1.31 ratio (phage bound to Q62-GST divided by phage bound to Q19-GST). Moreover, in the test with bovine serum albumin, the binding result was “no binding”.

B3: QBP3 phage clone (Glutamine Binding Peptide 3 displayed on M13 phage) (peptide)
chain: HEWHWWHQEAA-pIII
notes: as for B1
As for B3, the “RATIO Q62/Q19 BINDING ELISA” value in test [1] is 1.3 ratio (phage bound to Q62-GST divided by phage bound to Q19-GST). Besides, in the test with bovine serum albumin, the binding result was “no binding”.

B4: QBP6 phage clone (Glutamine Binding Peptide 6 displayed on M13 phage) (peptide)
chain: WHNYFHWWQDT-pIII
notes: as for B1
For the molecule B4, the “RATIO Q62/Q19 BINDING ELISA” value in test [1] is 1.23 ratio (phage bound to Q62-GST divided by phage bound to Q19-GST). Moreover, the binding result in the test with bovine serum albumin is recorded as “no binding”.

B5: QBP4 phage clone (Glutamine Binding Peptide 4 displayed on M13 phage) (peptide)
chain: WGLEHFAGNKR-pIII
notes: as for B1
As for B5, the “RATIO Q62/Q19 BINDING ELISA” value in test [1] is 1.27 ratio (phage bound to Q62-GST divided by phage bound to Q19-GST). The binding result in the test with bovine serum albumin is “no binding”.

B6: QBP1 synthetic 11-mer peptide (glutamine binding peptide 1) (peptide)
peptide: Ac-SNWKWWPGIFD
With B6, the “inhibition of thio-Q62 aggregation in vitro (turbidity at 405 nm)” value in test [2] was 3 molar ratio thio-Q62:QBP1 (3:1) for complete inhibition. The “inhibition of thio-Q81 aggregation in vitro (turbidity at 405 nm)” value in test [3] was 10 fold molar excess of QBP1 over thio-Q81.

B7: QBP1 phage clone (Glutamine Binding Peptide 1 displayed on M13 phage) (peptide)
chain: SNWKWWPGIFD-pIII
notes: as for B1
For B7, in test [1], the “RATIO Q62/Q19 BINDING ELISA” value is 1.66 ratio (phage bound to Q62-GST divided by phage bound to Q19-GST). Besides, the binding result in the test with bovine serum albumin was “no binding”.
